The target in experiment [1] is HLA-A*11:01. The experiment is described as follows: IEDB peptide-MHC binding, purified MHC/competitive/fluorescence; ≥ and ≤ were set here for values at or beyond the usual limits of such assays.
The target in experiment [2] is HLA-B*15:01. The experiment can be described thus: IEDB peptide-MHC binding, purified MHC/direct/fluorescence; filed as Kd, often an IC50 or EC50 that approximates it; ≥ and ≤ were set here for values at or beyond the usual limits of such assays. The settings on record: source organism: Yellow fever virus 17D.
For experiment [3], the target named is HLA-B*46:01. The experiment is described as above. The settings on record: source organism: Yellow fever virus 17D.
The next experiment has as its target HLA-B*15:42. The experiment can be described thus: IEDB peptide-MHC binding, purified MHC/competitive/fluorescence; filed as Kd, often an IC50 or EC50 that approximates it; ≥ and ≤ were set here for values at or beyond the usual limits of such assays.
Another experiment deals with HLA-B*45:06. The experiment is described as above.
Another experiment deals with HLA-B*83:01. Described as above.
Another experiment deals with HLA-A*03:01. The experiment is described as follows: IEDB peptide-MHC binding, purified MHC/direct/fluorescence; filed as Kd, often an IC50 or EC50 that approximates it; ≥ and ≤ were set here for values at or beyond the usual limits of such assays.
The target of experiment [4] is HLA-A*11:01. The description is as above.
The target of experiment [5] is HLA-A*31:01. The experiment can be described thus: IEDB peptide-MHC binding, purified MHC/competitive/fluorescence; filed as Kd, often an IC50 or EC50 that approximates it; ≥ and ≤ were set here for values at or beyond the usual limits of such assays.
The next experiment has as its target HLA-A*01:01. The experiment is described as follows: IEDB peptide-MHC binding, purified MHC/direct/fluorescence; filed as Kd, often an IC50 or EC50 that approximates it; ≥ and ≤ were set here for values at or beyond the usual limits of such assays. The settings on record: source organism: Giardia intestinalis.
The target in experiment [6] is HLA-A*02:01. The experiment is described as above. The settings on record: source organism: Giardia intestinalis.
For experiment [7], the target named is HLA-A*26:01. The description is as above. The settings on record: source organism: Giardia lamblia ATCC 50803.
Experiment [8] addresses HLA-A*31:01. Described as above. The following applies: source organism: Giardia intestinalis.
The target of the next experiment is HLA-A*68:02. The experiment is described as above.
Experiment [9] has as its target HLA-A*69:01. The description is as above. The following applies: source organism: Giardia intestinalis.
For the next experiment, the target named is HLA-B*07:02. The description is as above. The following applies: source organism: Giardia intestinalis.
In experiment [10] the target is HLA-B*18:01. The experiment is described as above. The settings on record: source organism: Giardia intestinalis.
The next experiment concerns the target HLA-B*27:05. Described as above. The settings on record: source organism: Giardia intestinalis.
A further experiment has as its target HLA-B*40:01. The description is as above.
In a further experiment the target is HLA-B*48:01. Described as above. The settings on record: source organism: Giardia intestinalis.
Experiment [11] deals with HLA-B*57:01. The description is as above. The settings on record: source organism: Giardia intestinalis.
In a further experiment the target is HLA-B*58:01. Described as above. The following applies: source organism: Giardia intestinalis.
In experiment [12] the target is HLA-A*02:03. The experiment can be described thus: IEDB peptide-MHC binding, purified MHC/competitive/fluorescence; filed as Kd, often an IC50 or EC50 that approximates it; ≥ and ≤ were set here for values at or beyond the usual limits of such assays. The settings on record: source organism: Giardia intestinalis.
Experiment [13] deals with HLA-A*02:03. The experiment is described as follows: IEDB peptide-MHC binding, purified MHC/direct/fluorescence; filed as Kd, often an IC50 or EC50 that approximates it; ≥ and ≤ were set here for values at or beyond the usual limits of such assays. The following applies: source organism: Choclo virus.
Another experiment deals with HLA-A*02:11. The description is as above. The settings on record: source organism: Choclo virus.
In a further experiment the target is HLA-A*02:12. Described as above. The settings on record: source organism: Choclo virus.
For the next experiment, the target named is HLA-A*02:16. The experiment is described as above. The following applies: source organism: Choclo virus.
The next experiment addresses HLA-A*02:19. The experiment is described as above. The settings on record: source organism: Choclo virus.
The target of the next experiment is HLA-A*24:03. The experiment is described as above. The settings on record: source organism: Choclo virus.
A further experiment addresses HLA-A*29:02. The experiment is described as above. The settings on record: source organism: Choclo virus.
Experiment [14] concerns the target HLA-A*02:01. The experiment can be described thus: IEDB peptide-MHC binding, purified MHC/competitive/fluorescence; filed as Kd, often an IC50 or EC50 that approximates it; ≥ and ≤ were set here for values at or beyond the usual limits of such assays. The settings on record: source organism: Four Corners hantavirus.
In experiment [15] the target is HLA-A*26:01. The experiment is described as above. The settings on record: source organism: Four Corners hantavirus.
Experiment [16] has as its target HLA-A*69:01. The experiment is described as above. The settings on record: source organism: Four Corners hantavirus.
In experiment [17] the target is HLA-B*15:01. Described as above. The settings on record: source organism: Four Corners hantavirus.
The target of the next experiment is HLA-B*15:17. The experiment is described as above. The settings on record: source organism: Four Corners hantavirus.
The target in experiment [18] is HLA-B*18:01. The experiment is described as above. The settings on record: source organism: Four Corners hantavirus.
The target in another experiment is HLA-B*27:03. The experiment is described as above. The settings on record: source organism: Four Corners hantavirus.
The next experiment concerns the target HLA-B*39:01. Described as above. The settings on record: source organism: Four Corners hantavirus.
Experiment [19] concerns the target HLA-B*46:01. The experiment is described as above. The settings on record: source organism: Four Corners hantavirus.
In the next experiment the target is HLA-B*51:01. The description is as above. The following applies: source organism: Four Corners hantavirus.
The target in experiment [20] is HLA-B*57:01. The experiment is described as above. The following applies: source organism: Four Corners hantavirus.
For experiment [21], the target named is HLA-A*02:01. The experiment can be described thus: IEDB peptide-MHC binding, purified MHC/competitive/fluorescence; ≥ and ≤ were set here for values at or beyond the usual limits of such assays. The settings on record: source organism: Zaire ebolavirus.
The target in the next experiment is HLA-A*24:02. The description is as above. The settings on record: source organism: Zaire ebolavirus.
Experiment [22] concerns the target HLA-B*15:01. The experiment is described as above. The following applies: source organism: Zaire ebolavirus.
Setting [23] is: source organism: Yellow fever virus.
Where [24] appears, read: source organism: Bacillus anthracis.
Setting [25] is: source organism: Yersinia pestis Antiqua.
Where [26] appears, read: source organism: Giardia intestinalis.
Where [27] appears, read: source organism: Mycobacterium tuberculosis C.

With AAGIAWIPY, the IC50 (commonly the midpoint of a concentration-inhibition curve) with HLA-A*11:01 [1] (source organism: Sudan ebolavirus) was found to be 29.6 µM.

Consider AEMGANLCV, for which the Kd (usually a measure of binding affinity in units of concentration) with HLA-B*15:01 [2] was ≥ 20 µM; with HLA-B*46:01 [3] it was ≥ 20 µM; in the experiment with HLA-B*15:42 (setting [23]) it was ≥ 5 µM; with HLA-B*45:06 (setting [23]), ≥ 5 µM; with HLA-B*83:01 (setting [23]) it was ≥ 5 µM.

Take GTLTKGVFK: the figures for the Kd in the experiment with HLA-A*03:01 (setting [24]), in the experiment with HLA-A*11:01 [4] (setting [24]) and with HLA-A*31:01 [5] (source organism: Bacillus anthracis str. A0488) were 0.0549 µM, 0.012 µM and 0.0154 µM, respectively.

With KVCRSPAQK, the Kd in the experiment with HLA-A*03:01 (setting [25]) amounted to 1.81 µM; with HLA-A*11:01 [4] (setting [25]), 0.115 µM; in the experiment with HLA-A*31:01 [5] (source organism: Yersinia pestis Nepal516), 1.64 µM.

For LEKWNLGII, the Kd with HLA-A*01:01, in the experiment with HLA-A*02:01 [6], in the experiment with HLA-A*11:01 [4] (setting [26]), with HLA-A*26:01 [7], in the experiment with HLA-A*31:01 [8] and with HLA-A*68:02 (setting [26]) was ≥ 20 µM each time. Also, the Kd in the experiment with HLA-A*69:01 [9] is ≥ 20 µM; with HLA-B*07:02, ≥ 20 µM; with HLA-B*18:01 [10], 1.14 µM; in the experiment with HLA-B*27:05 it was ≥ 20 µM; in the experiment with HLA-B*40:01 (setting [26]), 0.599 µM; with HLA-B*48:01 it was ≥ 20 µM. For the same sequence, the dissociation constant Kd is ≥ 20 µM with HLA-B*57:01 [11], ≥ 20 µM with HLA-B*58:01 and 4.37 µM in the experiment with HLA-A*02:03 [12].

On to PELGAFFAI, for which the equilibrium dissociation constant (Kd) with HLA-A*02:03 [13], with HLA-A*02:11, with HLA-A*02:12, with HLA-A*02:16, with HLA-A*02:19 and with HLA-A*03:01 (source organism: Choclo virus) was ≥ 20 µM in each case. In addition, the dissociation constant (Kd) is ≥ 20 µM with HLA-A*24:03; ≥ 20 µM in the experiment with HLA-A*29:02; ≥ 20 µM in the experiment with HLA-A*68:02 (source organism: Choclo virus); 0.107 µM in the experiment with HLA-B*40:01 (source organism: Itapua hantavirus); ≥ 20 µM with HLA-A*02:01 [14]; ≥ 20 µM with HLA-A*26:01 [15]. Besides, the dissociation constant Kd with HLA-A*69:01 [16], in the experiment with HLA-B*15:01 [17], with HLA-B*15:17, in the experiment with HLA-B*18:01 [18], with HLA-B*27:03 and with HLA-B*39:01 was ≥ 20 µM each time. Moreover, the dissociation constant Kd with HLA-B*46:01 [19], with HLA-B*51:01 and with HLA-B*57:01 [20] was ≥ 20 µM throughout.

With RTHLGFIFQ, the equilibrium dissociation constant (Kd) in the experiment with HLA-A*03:01 (setting [24]), with HLA-A*11:01 [4] (setting [24]) and with HLA-A*31:01 [5] (source organism: Bacillus thuringiensis str. Al Hakam) was ≥ 20 µM throughout.

Turning to SARRRHLVF, the dissociation constant (Kd) with HLA-B*15:42 (setting [27]), with HLA-B*45:06 (setting [27]) and with HLA-B*83:01 (setting [27]) was ≥ 5 µM in each case.

With VSAAGTTLR, the equilibrium dissociation constant (Kd) was ≥ 20 µM in the experiment with HLA-A*03:01 (source organism: Mycobacterium tuberculosis) and 0.35 µM in the experiment with HLA-A*31:01 [5] (source organism: Mycobacterium tuberculosis H37Rv).

For YQGDYKLFL, the IC50 was found to be 0.601 µM in the experiment with HLA-A*02:01 [21], 60 µM with HLA-A*11:01 [1] (source organism: Zaire ebolavirus), 0.902 µM with HLA-A*24:02 and 10.8 µM with HLA-B*15:01 [22].

Source of the values: the Immune Epitope Database (IEDB).
